Test results taken from doi:10.1101/2024.12.23.630085, “Accurate sequence-to-affinity models for SH2 domains from multi-round peptide binding assays coupled with free-energy regression” (bioRxiv, 2025).
Non-standard residues stand in square brackets, D forms with d. No end group written: not given here. *: point of attachment. FITC = O=C1OC2(c3ccc(O)cc3Oc3cc(O)ccc32)c2ccc(NC(=S)*)cc21; pY = N[C@@H](Cc1ccc(OP(=O)(O)O)cc1)C(=O)O; Ahx = NCCCCCC(=O)O

Assays:
Experiment in all cases: fluorescence polarisation; competition mode: unlabelled phosphopeptide competes with a FITC-labelled probe phosphopeptide for the purified SH2 domain; probe KD first measured in direct mode; as described in ref. 33
Details in all cases: both partners purified
[1] = target: T1, Lyn SH2 domain (121-228) (human, UniProt P07948 121-228, biotin on the AviTag)
T1 construct: source: E. coli C43(DE3) with BirA helper plasmid, purified (HisTrap, HiTrap Q, Superdex 75); not shown: His6-SUMO, N-terminal, cleaved; AviTag, C-terminal, kept

[2] = target: T2, Fyn SH2 domain (142-248) (human, UniProt P06241 142-248, biotin on the AviTag)
T2 construct: human Fyn kinase, SH2 domain, residues 142-248; source: E. coli C43(DE3) with BirA helper plasmid, purified (HisTrap, HiTrap Q, Superdex 75); not shown: His6-SUMO, N-terminal, cleaved; AviTag, C-terminal, kept

[3] = target: T3, Blk SH2 domain (116-222) (human, UniProt P51451 116-222, biotin on the AviTag)
T3 construct: human Blk kinase, SH2 domain, residues 116-222; source: E. coli C43(DE3) with BirA helper plasmid, purified (HisTrap, HiTrap Q, Superdex 75); not shown: His6-SUMO, N-terminal, cleaved; AviTag, C-terminal, kept

[4] = target: T4, Yes SH2 domain (150-257) (human, UniProt P07947 150-257, biotin on the AviTag)
T4 construct: human Yes kinase, SH2 domain, residues 150-257; source: E. coli C43(DE3) with BirA helper plasmid, purified (HisTrap, HiTrap Q, Superdex 75); not shown: His6-SUMO, N-terminal, cleaved; AviTag, C-terminal, kept

Measured: binding result

T2 sequence (P06241 142-248): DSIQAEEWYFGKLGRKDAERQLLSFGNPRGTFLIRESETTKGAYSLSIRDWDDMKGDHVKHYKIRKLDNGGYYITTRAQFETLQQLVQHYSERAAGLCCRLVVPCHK
T1 sequence (P07948 121-228): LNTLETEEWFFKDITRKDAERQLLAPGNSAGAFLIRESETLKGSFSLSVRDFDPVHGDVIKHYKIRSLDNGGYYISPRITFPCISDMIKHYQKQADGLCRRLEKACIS
T3 sequence (P51451 116-222): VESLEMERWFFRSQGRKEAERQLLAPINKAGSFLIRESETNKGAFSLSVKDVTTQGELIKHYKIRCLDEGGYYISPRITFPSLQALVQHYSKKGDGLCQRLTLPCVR
T4 sequence (P07947 150-257): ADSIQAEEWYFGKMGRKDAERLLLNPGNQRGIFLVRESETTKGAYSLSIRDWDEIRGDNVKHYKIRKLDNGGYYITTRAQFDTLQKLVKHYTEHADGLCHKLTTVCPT

B1: FITC-Ahx-GDG(pY)EEISPLLL (peptide)
peptide: {FITC-Ahx}-GDG[pY]EEISPLLL
notes: c-Src SH2 consensus peptide; the Y is phosphotyrosine; also called c-Src SH2 consensus; probe; source: synthetic peptide (SynPeptide, China)
binds: all assays above
